Here are results for 26 molecules from patent publication US20230391891A1 (SYNTHEKINE, published 2023).

Numbering of substitutions follows the chain as printed.

Experiment [1] addresses T1, extracellular domain of mIL10Rb (mouse, UniProt Q61190 20-220).
T1 construct: also called mIL10Rb ECD; murine IL10Rb
T1 sequence: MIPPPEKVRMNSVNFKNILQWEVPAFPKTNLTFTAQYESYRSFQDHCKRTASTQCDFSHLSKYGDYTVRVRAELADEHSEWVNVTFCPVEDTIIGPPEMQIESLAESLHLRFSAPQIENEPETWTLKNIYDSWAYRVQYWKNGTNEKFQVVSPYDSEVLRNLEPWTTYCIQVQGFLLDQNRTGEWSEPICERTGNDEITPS
The experiment can be described thus: flow cytometry, cross-reactivity. A general note: A flow cytometer gives signals particle by particle.

Experiment [2] addresses T2, extracellular domain of hIL10Rb (human, UniProt Q08334 20-220).
T2 construct: also called hIL10Rb ECD; human IL10Rb
T2 sequence: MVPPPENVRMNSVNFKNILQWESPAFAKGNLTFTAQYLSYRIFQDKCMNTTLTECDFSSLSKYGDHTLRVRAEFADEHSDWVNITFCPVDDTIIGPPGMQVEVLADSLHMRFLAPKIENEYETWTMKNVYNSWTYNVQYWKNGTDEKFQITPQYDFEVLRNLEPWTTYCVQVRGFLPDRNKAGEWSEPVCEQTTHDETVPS
The experiment is described as follows: flow cytometry.

B1: hIL10Rb_VHH-3 (VHH)
VHH: QVQLQESGGGSVQAGGSLRLSCAASRYTYNSYCMGWFRQAPGKEREGVATIDSDGMTRYADSVKGRFTISKDNAKNTLYLQMNSLKPEDTAMYYCAADADCTIAAMTTNPLGQGTQVTVSS
notes: anti-hIL10Rb camel VHH
For B1, the binding result in experiment [1] and in experiment [2] was “binds” each time.

B2: hIL10Rb_VHH-2 (VHH)
VHH: QVQLQESGGGSVQAGGSLRLSCAASGYTYSSYCMGWFRQAPGKEREGVAAIDSDGSTRYADSVKGRFTISKDNAKNTLYLQMNSLKPEDTAMYYCAAEPYCSGGYKRTMVAEFGYWGQGTQVTVSS
notes: anti-hIL10Rb camel VHH
As to B2, the binding result in experiment [2] was “binds”.

B3: hIL10Rb_VHH-23 (VHH)
VHH: B2 VHH with N76K, T77I, P87V, Y115F
notes: anti-hIL10Rb camel VHH
Take B3: in experiment [2], the binding result is reported as “binds”.

B4: hIL10Rb_VHH-14 (VHH)
VHH: B2 VHH with Y32G, A50T, D52N, R58N, A91G, K106P, T108W, M109S
notes: anti-hIL10Rb camel VHH
Regarding B4, the binding result in experiment [2] was “binds”.

B5: hIL10Rb_VHH-18 (VHH)
VHH: B2 VHH with Y27D, A50F, K64E, K106H, T108K, M109E, V110M
notes: anti-hIL10Rb camel VHH
Consider B5, for which the binding result in experiment [2] was “binds”.

B6: hIL10Rb_VHH-8 (VHH)
VHH: QVQLQESGGGSVQAGGSLRLSCAASGYSYSSYCMGWFRQAPGKEREGVAAIASDGSTSYADSVKGRFAISKDNAKNTLYLQMASLKPEDTAMYYCAAEPWCTGGYSRLTPAEYGYWGQGTQVTVSS
notes: anti-hIL10Rb camel VHH
On to B6, for which, in experiment [2], the binding result was “binds”.

B7: hIL10Rb_VHH-7 (VHH)
VHH: B2 VHH with Y32G, A50T, D52N, R58N, K106P, T108W, M109S
notes: anti-hIL10Rb camel VHH
With B7, the binding result in experiment [2] was “binds”.

B8: hIL10Rb_VHH-11 (VHH)
VHH: B2 VHH with E44G
notes: anti-hIL10Rb camel VHH
Regarding B8, the binding result in experiment [2] is reported as “binds”.

B9: hIL10Rb_VHH-9 (VHH)
VHH: B2 VHH with S11L, A14P, Y32G, A50T, D52N, R58N, K106P, T108W, M109S
notes: anti-hIL10Rb camel VHH
For the molecule B9, the binding result in experiment [2] was “binds”.

B10: hIL10Rb_VHH-1 (VHH)
VHH: B2 VHH with Y32G, G47A, D52N, R58S, K106P, T108W, M109S
notes: anti-hIL10Rb camel VHH
As to B10, the binding result in experiment [2] was “binds”.

B11: hIL10Rb_VHH-26 (VHH)
VHH: QVQLQESGGGSVQAGGSLRLSCAASGYSYSSYCMGWFRQAPGKEREGVATIDSDGMTRYADSVKGRFTISKDNAKNTLYLQMNSLKPEDTAMYYCAAPLYDCDSGAVGRNPPYWGQGTQVTVSS
notes: anti-hIL10Rb camel VHH
Regarding B11, the binding result in experiment [1] and in experiment [2] was “binds” in each case.

B12: hIL10Rb_VHH-16 (VHH)
VHH: QVQLQESGGGSVEAGGSLRLSCAASGYTHSSYCMGWFRQAPGKEREGVAAIDVDGSTTYADSVKGRFTISKDNAKNTLYLQMNSLKPEDTGMYYCAAEFADCSSNYFLPPGAVRYWGQGTQVTVSS
notes: anti-hIL10Rb camel VHH
On to B12, for which the binding result in experiment [1] and in experiment [2] was “binds” each time.

B13: hIL10Rb_VHH-15 (VHH)
VHH: QVQLQESGGGSVQAGGSLRLSCTVSRYTASVNYMGWFRQAPGKEREGVATIFTGAGTTYYANSVKGRFTISRDNAKNTAYLQMNSLKPEDTAIYYCAVDFRGGLLYRPAYEYTYRGQGTQVTVSS
notes: anti-hIL10Rb camel VHH
For B13, the binding result in experiment [2] is reported as “binds”.

B14: hIL10Rb_VHH-17 (VHH)
VHH: B13 VHH with I93M
notes: anti-hIL10Rb camel VHH
Take B14: the binding result in experiment [2] is on record as “binds”.

B15: hIL10Rb_VHH-12 (VHH)
VHH: QVQLQESGGGSVQAGGSLRLSCAASGYTYSSYCMGWFRQAPGKEREGVAHIDSDGSTSYADSVKGRFTISKDNAKNTLYLQMNSLKPEDTAMYYCAADPIPGPGYCDGGPNKYWGQGTQVTVSS
notes: anti-hIL10Rb camel VHH
Take B15: the binding result in experiment [1] and in experiment [2] was “binds” in each case.

B16: hIL10Rb_VHH-24 (VHH)
VHH: B15 VHH with R19K, S58T, K112N
notes: anti-hIL10Rb camel VHH
On to B16, for which the binding result in experiment [1] and in experiment [2] was “binds” throughout.

B17: hIL10Rb_VHH-20 (VHH)
VHH: B15 VHH with S58T, T68A
notes: anti-hIL10Rb camel VHH
Regarding B17, the binding result in experiment [1] and in experiment [2] was “binds” throughout.

B18: hIL10Rb_VHH-22 (VHH)
VHH: B15 VHH with Y29D, S31R, Q39K
notes: anti-hIL10Rb camel VHH
As to B18, the binding result in experiment [1] and in experiment [2] was “binds” each time.

B19: hIL10Rb_VHH-25 (VHH)
VHH: B15 VHH with V48I, S58T, K112N
notes: anti-hIL10Rb camel VHH
In the case of B19, the binding result in experiment [1] and in experiment [2] was “binds” each time.

B20: hIL10Rb_VHH-13 (VHH)
VHH: B15 VHH with K112N
notes: anti-hIL10Rb camel VHH
On to B20, for which the binding result in experiment [1] and in experiment [2] was “binds” each time.

B21: hIL10Rb_VHH-10 (VHH)
VHH: B15 VHH with S11L, A14P, S58T, T68A
notes: anti-hIL10Rb camel VHH
Regarding B21, the binding result in experiment [1] and in experiment [2] was “binds” throughout.

B22: hIL10Rb_VHH-19 (VHH)
VHH: B15 VHH with W114R
notes: anti-hIL10Rb camel VHH
On to B22, for which the binding result in experiment [1] and in experiment [2] was “binds” throughout.

B23: hIL10Rb_VHH-5 (VHH)
VHH: B15 VHH with S11L, A14P, S58T
notes: anti-hIL10Rb camel VHH
With B23, in experiment [2], the binding result is recorded as “binds”.

B24: hIL10Rb_VHH-27 (VHH)
VHH: QVQLQESGGGSVQTGGSLRLSCAASGYTYLRGCMGWFRQAPGKEREGVAVMDVVGDRRSYIDSVKGRFTISRDNAANSVYLQMDNLKPEDTAMYYCTAGPNCVGWRSGLDYWGQGTQVTVSS
notes: anti-hIL10Rb camel VHH
Take B24: in experiment [2], the binding result is given as “binds”.

B25: hIL10Rb_VHH-4 (VHH)
VHH: QVQLQESGGGSIQAGGSLRLSCAASRYLYSIDYMAWFRQSPGKEREPVAVIYTASGATFYPDSVKGRFTISQDNAKMTVYLQMNSLKSEDTAMYYCAAVRKTDSYLFDAQSFTYWGQGTQVTVSS
notes: anti-hIL10Rb camel VHH
In the case of B25, the binding result in experiment [1] and in experiment [2] was “binds” each time.

B26: hIL10Rb_VHH-6 (VHH)
VHH: B25 VHH with R19T, Y27D, I31T, D32N, M34V, P47A, F59L, P61S, D103G, S104H
notes: anti-hIL10Rb camel VHH
Take B26: the binding result in experiment [1] and in experiment [2] was “binds” throughout.
